Experimental data: patent US20130005646A1 (Novo Nordisk, published 2013)
Starred links: 1 amine or outer side, 2 acyl side, 3 side chain; linkers in the order of their positions; H or OH if unused. Positions of bridges follow the written chain, without caps; N, C: chain ends. *: point of attachment. X1 = (S)‑4‑Carboxy‑4‑(19-carboxynonadecanoylamino)butyryl, O=C(O)CCCCCCCCCCCCCCCCCCC(=O)N[C@@H](CCC(=O)*)C(=O)O; C20 diacid = O=C(O)CCCCCCCCCCCCCCCCCCC(=O)*; 19‑carboxyheptadecanoyl = not defined here; γGlu = O=C(O)[C@H](CCC(=O)[*:2])N[*:1]; AEEA = NCCOCCOCC(=O)O

B1: N-alpha-[(S)-4-Carboxy-4-(19-carboxynonadecanoylamino)butyryl]-[His1,Gly3,Glu14,His17,Arg18,Ser21,Ser22,Glu31,Glu35]-pramlintide (peptide)
peptide: {C20 diacid-γGlu}-HCGTATCATQRLAEFLHRSSSSFGPILPPTEVGSETY-NH2
modifications: disulfide 2-7
SMILES: CC[C@H](C)[C@H](NC(=O)[C@@H]1CCCN1C(=O)CNC(=O)[C@H](Cc1ccccc1)NC(=O)[C@H](CO)NC(=O)[C@H](CO)NC(=O)[C@H](CO)NC(=O)[C@H](CO)NC(=O)[C@H](CCCNC(=N)N)NC(=O)[C@H](Cc1c[nH]cn1)NC(=O)[C@H](CC(C)C)NC(=O)[C@H](Cc1ccccc1)NC(=O)[C@H](CCC(=O)O)NC(=O)[C@H](C)NC(=O)[C@H](CC(C)C)NC(=O)[C@H](CCCNC(=N)N)NC(=O)[C@H](CCC(N)=O)NC(=O)[C@@H](NC(=O)[C@H](C)NC(=O)[C@@H]1CSSC[C@H](NC(=O)[C@H](Cc2c[nH]cn2)NC(=O)CC[C@H](NC(=O)CCCCCCCCCCCCCCCCCCC(=O)O)C(=O)O)C(=O)NCC(=O)N[C@@H]([C@@H](C)O)C(=O)N[C@@H](C)C(=O)N[C@@H]([C@@H](C)O)C(=O)N1)[C@@H](C)O)C(=O)N[C@@H](CC(C)C)C(=O)N1CCC[C@H]1C(=O)N1CCC[C@H]1C(=O)N[C@H](C(=O)N[C@@H](CCC(=O)O)C(=O)N[C@H](C(=O)NCC(=O)N[C@@H](CO)C(=O)N[C@@H](CCC(=O)O)C(=O)N[C@H](C(=O)N[C@@H](Cc1ccc(O)cc1)C(N)=O)[C@@H](C)O)C(C)C)[C@@H](C)O
B2: N-alpha-[(S)-4-Carboxy-4-(19-carboxynonadecanoylamino)butyryl]-[His1,Glu14,Arg18]-pramlintide (peptide)
peptide: X1-HCNTATCATQRLAEFLVRSSNNFGPILPPTNVGSNTY-NH2
modifications: disulfide 2-7
SMILES: CC[C@H](C)[C@H](NC(=O)[C@@H]1CCCN1C(=O)CNC(=O)[C@H](Cc1ccccc1)NC(=O)[C@H](CC(N)=O)NC(=O)[C@H](CC(N)=O)NC(=O)[C@H](CO)NC(=O)[C@H](CO)NC(=O)[C@H](CCCNC(=N)N)NC(=O)[C@@H](NC(=O)[C@H](CC(C)C)NC(=O)[C@H](Cc1ccccc1)NC(=O)[C@H](CCC(=O)O)NC(=O)[C@H](C)NC(=O)[C@H](CC(C)C)NC(=O)[C@H](CCCNC(=N)N)NC(=O)[C@H](CCC(N)=O)NC(=O)[C@@H](NC(=O)[C@H](C)NC(=O)[C@@H]1CSSC[C@H](NC(=O)[C@H](Cc2c[nH]cn2)NC(=O)CC[C@H](NC(=O)CCCCCCCCCCCCCCCCCCC(=O)O)C(=O)O)C(=O)N[C@@H](CC(N)=O)C(=O)N[C@@H]([C@@H](C)O)C(=O)N[C@@H](C)C(=O)N[C@@H]([C@@H](C)O)C(=O)N1)[C@@H](C)O)C(C)C)C(=O)N[C@@H](CC(C)C)C(=O)N1CCC[C@H]1C(=O)N1CCC[C@H]1C(=O)N[C@H](C(=O)N[C@@H](CC(N)=O)C(=O)N[C@H](C(=O)NCC(=O)N[C@@H](CO)C(=O)N[C@@H](CC(N)=O)C(=O)N[C@H](C(=O)N[C@@H](Cc1ccc(O)cc1)C(N)=O)[C@@H](C)O)C(C)C)[C@@H](C)O
B3: N-alpha-[(S)-4-Carboxy-4-(19-carboxynonadecanoylamino)butyryl]-Glu-[Arg1,Glu14,His17]-pramlintide (peptide)
peptide: {C20 diacid-γGlu}-ERCNTATCATQRLAEFLHHSSNNFGPILPPTNVGSNTY-NH2
modifications: disulfide 3-8
SMILES: CC[C@H](C)[C@H](NC(=O)[C@@H]1CCCN1C(=O)CNC(=O)[C@H](Cc1ccccc1)NC(=O)[C@H](CC(N)=O)NC(=O)[C@H](CC(N)=O)NC(=O)[C@H](CO)NC(=O)[C@H](CO)NC(=O)[C@H](Cc1c[nH]cn1)NC(=O)[C@H](Cc1c[nH]cn1)NC(=O)[C@H](CC(C)C)NC(=O)[C@H](Cc1ccccc1)NC(=O)[C@H](CCC(=O)O)NC(=O)[C@H](C)NC(=O)[C@H](CC(C)C)NC(=O)[C@H](CCCNC(=N)N)NC(=O)[C@H](CCC(N)=O)NC(=O)[C@@H](NC(=O)[C@H](C)NC(=O)[C@@H]1CSSC[C@H](NC(=O)[C@H](CCCNC(=N)N)NC(=O)[C@H](CCC(=O)O)NC(=O)CC[C@H](NC(=O)CCCCCCCCCCCCCCCCCCC(=O)O)C(=O)O)C(=O)N[C@@H](CC(N)=O)C(=O)N[C@@H]([C@@H](C)O)C(=O)N[C@@H](C)C(=O)N[C@@H]([C@@H](C)O)C(=O)N1)[C@@H](C)O)C(=O)N[C@@H](CC(C)C)C(=O)N1CCC[C@H]1C(=O)N1CCC[C@H]1C(=O)N[C@H](C(=O)N[C@@H](CC(N)=O)C(=O)N[C@H](C(=O)NCC(=O)N[C@@H](CO)C(=O)N[C@@H](CC(N)=O)C(=O)N[C@H](C(=O)N[C@@H](Cc1ccc(O)cc1)C(N)=O)[C@@H](C)O)C(C)C)[C@@H](C)O
B4: N-alpha-[(S)-4-Carboxy-4-(19-carboxynonadecanoylamino)butyryl]-Glu-[Glu14,His17]-pramlintide (peptide)
peptide: {C20 diacid-γGlu}-EKCNTATCATQRLAEFLHHSSNNFGPILPPTNVGSNTY-NH2
modifications: disulfide 3-8; not fully specified; printed as N-alpha-[(S)-4-Carboxy-4-(19-carboxynonadecanoylamino)butyryl]-Glu-[Glu14,His17]-pramlintide
B5: N-alpha-[2-(2-{2-[2-(2-{2-[(S)-4-Carboxy-4-(19-carboxyheptadecanoylamino)butyrylamino]ethoxy}ethoxy)acetylamino]ethoxy}ethoxy)acetyl]-[His1,Glu14,His17,Arg18,Al … (peptide)
peptide: {19‑carboxyheptadecanoyl-γGlu-AEEA-AEEA}-HCNTATCATQRLAEFLHRATQELGPILPPTNVGSNTY-NH2
modifications: disulfide 2-7; reading uncertain; also: printed as N-alpha-[2-(2-{2-[2-(2-{2-[(S)-4-Carboxy-4-(19-carboxyheptadecanoylamino)butyrylamino]ethoxy}ethoxy)acetylamino]ethoxy}ethoxy)acetyl]-[His1,Glu14,His17,Arg18,Ala19,Thr20,Gln21,Glu22,Leu23]-pramlintide
B6: N-alpha-[(S)-4-Carboxy-4-(19-carboxynonadecanoylamino)butyryl]-His-His-[His1,Glu14]-pramlintide (peptide)
peptide: {C20 diacid-γGlu}-HHHCNTATCATQRLAEFLVHSSNNFGPILPPTNVGSNTY-NH2
modifications: disulfide 4-9
SMILES: CC[C@H](C)[C@H](NC(=O)[C@@H]1CCCN1C(=O)CNC(=O)[C@H](Cc1ccccc1)NC(=O)[C@H](CC(N)=O)NC(=O)[C@H](CC(N)=O)NC(=O)[C@H](CO)NC(=O)[C@H](CO)NC(=O)[C@H](Cc1c[nH]cn1)NC(=O)[C@@H](NC(=O)[C@H](CC(C)C)NC(=O)[C@H](Cc1ccccc1)NC(=O)[C@H](CCC(=O)O)NC(=O)[C@H](C)NC(=O)[C@H](CC(C)C)NC(=O)[C@H](CCCNC(=N)N)NC(=O)[C@H](CCC(N)=O)NC(=O)[C@@H](NC(=O)[C@H](C)NC(=O)[C@@H]1CSSC[C@H](NC(=O)[C@H](Cc2c[nH]cn2)NC(=O)[C@H](Cc2c[nH]cn2)NC(=O)[C@H](Cc2c[nH]cn2)NC(=O)CC[C@H](NC(=O)CCCCCCCCCCCCCCCCCCC(=O)O)C(=O)O)C(=O)N[C@@H](CC(N)=O)C(=O)N[C@@H]([C@@H](C)O)C(=O)N[C@@H](C)C(=O)N[C@@H]([C@@H](C)O)C(=O)N1)[C@@H](C)O)C(C)C)C(=O)N[C@@H](CC(C)C)C(=O)N1CCC[C@H]1C(=O)N1CCC[C@H]1C(=O)N[C@H](C(=O)N[C@@H](CC(N)=O)C(=O)N[C@H](C(=O)NCC(=O)N[C@@H](CO)C(=O)N[C@@H](CC(N)=O)C(=O)N[C@H](C(=O)N[C@@H](Cc1ccc(O)cc1)C(N)=O)[C@@H](C)O)C(C)C)[C@@H](C)O
B7: N-alpha-[(S)-4-Carboxy-4-(19-carboxynonadecanoylamino)butyryl]-[Glu14,Arg17,Pro37]-pramlintide (peptide)
peptide: KCNTATCATQRLAEFLRHSSNNFGPILPPTNVGSNTP
modifications: N-alpha acylated: C20diacid-gGlu; disulfide Cys2-Cys7; C-terminal amide

Each binder was assayed against T1, human amylin 3(a) receptor (human calcitonin receptor + RAMP-3) (human, UniProt P30988 25-474; O60896 24-148) (assay: cell-based or functional assay).
T1 sequence (looked up) 1: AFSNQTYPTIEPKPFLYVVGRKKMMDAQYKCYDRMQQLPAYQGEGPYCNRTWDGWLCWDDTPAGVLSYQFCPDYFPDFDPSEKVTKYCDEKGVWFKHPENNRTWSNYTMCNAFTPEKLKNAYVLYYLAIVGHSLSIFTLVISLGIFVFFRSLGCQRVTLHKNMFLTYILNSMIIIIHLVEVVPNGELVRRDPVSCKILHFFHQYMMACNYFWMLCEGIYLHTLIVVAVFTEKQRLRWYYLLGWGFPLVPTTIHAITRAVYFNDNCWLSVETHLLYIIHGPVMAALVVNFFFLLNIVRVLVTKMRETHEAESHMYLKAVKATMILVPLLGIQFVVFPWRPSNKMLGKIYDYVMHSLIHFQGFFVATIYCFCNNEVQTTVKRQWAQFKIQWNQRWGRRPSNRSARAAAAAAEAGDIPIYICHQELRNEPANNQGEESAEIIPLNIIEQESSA
T1 sequence (looked up) 2: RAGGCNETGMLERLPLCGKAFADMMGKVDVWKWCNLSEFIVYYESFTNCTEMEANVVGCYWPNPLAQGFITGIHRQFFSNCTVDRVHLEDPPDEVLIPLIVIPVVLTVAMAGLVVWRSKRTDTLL

Binder | Amylin receptor human EC50 [pM]
B1 | 313
B2 | 83
B3 | 119
B4 | 130
B5 | 385
B6 | 151

These binders were tested against T2, rat calcitonin (a) receptor (rat, UniProt P32214 25-516) (assay: cell-based or functional assay).
T2 sequence (looked up): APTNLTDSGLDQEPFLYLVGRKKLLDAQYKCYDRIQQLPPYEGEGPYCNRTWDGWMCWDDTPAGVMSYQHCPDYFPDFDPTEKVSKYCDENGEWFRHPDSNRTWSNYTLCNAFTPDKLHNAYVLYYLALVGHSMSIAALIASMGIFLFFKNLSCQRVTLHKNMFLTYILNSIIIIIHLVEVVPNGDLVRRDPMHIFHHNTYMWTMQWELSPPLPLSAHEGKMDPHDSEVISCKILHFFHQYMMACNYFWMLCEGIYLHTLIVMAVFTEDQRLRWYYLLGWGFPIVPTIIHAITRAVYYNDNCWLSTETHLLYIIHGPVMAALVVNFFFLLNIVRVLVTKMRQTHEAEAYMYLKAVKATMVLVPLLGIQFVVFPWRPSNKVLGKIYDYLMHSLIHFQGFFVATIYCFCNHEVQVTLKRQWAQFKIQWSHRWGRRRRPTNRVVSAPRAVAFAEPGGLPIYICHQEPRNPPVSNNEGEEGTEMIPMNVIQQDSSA

Binder | CTa receptor rat EC50 [pM]
B7 | 287
B4 | 1390

These binders were tested against T3, human calcitonin (a) receptor (human, UniProt P30988 25-474) (assay: cell-based or functional assay).
T3 sequence (looked up): T1 sequence (looked up) 1

Binder | CTa receptor human EC50 [pM]
B1 | 198
B2 | 125
B3 | 184
B4 | 214
B5 | 492
B6 | 740

Each binder was assayed against T4, rat amylin 3(a) receptor (rat calcitonin(a) receptor + rat RAMP3) (rat, UniProt P32214 25-516; Q9JJ73 23-147) (assay: cell-based or functional assay).
T4 sequence (looked up) 1: T2 sequence (looked up)
T4 sequence (looked up) 2: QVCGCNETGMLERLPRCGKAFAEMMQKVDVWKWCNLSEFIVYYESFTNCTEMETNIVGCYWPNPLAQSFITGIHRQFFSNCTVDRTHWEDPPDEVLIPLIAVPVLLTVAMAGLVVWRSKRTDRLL

Binder | Amylin receptor rat EC50 [pM]
B7 | 348
B4 | 476
